{
  "source": "paper PMC11551741",
  "about": "(Nucleic Acids Research, 2024)",
  "key": {"[1]": {"biological_target": "unmodified nucleosome core particle (H2A, H2B, H3.1, H4 and 147 bp Widom 601 DNA) (human) (UniProt P0C0S8)", "experiment": "native gel or EMSA; 10 nM nucleosome core particles with rising SLF1^ARD or SLF1^ARD_4A, room temperature, 20 mins; Diamond DNA stain"}, "[2]": {"biological_target": "RAD18 peptide 437-452 (Homo sapiens) (UniProt Q9NS91)", "experiment": "ITC", "settings": "cited from earlier work"}, "SLF1 tBRCT, 6-208": {"biological_target": "SLF1 tBRCT, 6-208 (UniProt Q9BQI6)", "sequence (Q9BQI6 whole entry, looked up, tested part not stated)": "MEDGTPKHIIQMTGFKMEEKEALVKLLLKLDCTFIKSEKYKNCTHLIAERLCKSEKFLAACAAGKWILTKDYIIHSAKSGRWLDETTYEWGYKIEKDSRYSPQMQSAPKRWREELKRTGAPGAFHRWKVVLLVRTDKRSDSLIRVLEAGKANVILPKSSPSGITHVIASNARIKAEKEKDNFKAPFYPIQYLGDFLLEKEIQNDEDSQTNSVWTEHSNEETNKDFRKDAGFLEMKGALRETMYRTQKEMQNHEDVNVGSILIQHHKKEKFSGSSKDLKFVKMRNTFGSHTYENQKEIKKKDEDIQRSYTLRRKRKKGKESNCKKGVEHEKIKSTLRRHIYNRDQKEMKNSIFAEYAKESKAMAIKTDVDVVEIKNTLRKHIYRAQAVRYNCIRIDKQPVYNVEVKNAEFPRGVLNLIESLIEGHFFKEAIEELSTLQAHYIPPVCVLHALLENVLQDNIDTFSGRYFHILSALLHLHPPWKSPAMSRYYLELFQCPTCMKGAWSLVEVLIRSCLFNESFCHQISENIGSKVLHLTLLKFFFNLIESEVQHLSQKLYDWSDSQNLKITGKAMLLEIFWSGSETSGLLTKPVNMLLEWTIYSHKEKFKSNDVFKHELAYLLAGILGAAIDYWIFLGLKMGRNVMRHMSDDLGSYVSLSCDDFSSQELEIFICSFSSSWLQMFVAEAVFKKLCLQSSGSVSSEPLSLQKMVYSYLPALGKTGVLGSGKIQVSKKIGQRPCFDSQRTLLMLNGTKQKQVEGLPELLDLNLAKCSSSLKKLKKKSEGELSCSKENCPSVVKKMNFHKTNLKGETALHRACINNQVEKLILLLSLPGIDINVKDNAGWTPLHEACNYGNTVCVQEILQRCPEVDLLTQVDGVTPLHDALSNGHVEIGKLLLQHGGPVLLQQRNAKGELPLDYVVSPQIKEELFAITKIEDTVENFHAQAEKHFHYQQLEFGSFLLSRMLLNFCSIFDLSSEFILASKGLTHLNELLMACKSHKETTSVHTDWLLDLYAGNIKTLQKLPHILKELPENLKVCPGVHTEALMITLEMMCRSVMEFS", "experiment": "thermal melt (SYPRO Orange) of SLF1tBRCT"}, "SLF1 ARD": {"biological_target": "T1, SLF1 ARD (Homo sapiens, UniProt Q9BQI6 802-934)", "T1 sequence": "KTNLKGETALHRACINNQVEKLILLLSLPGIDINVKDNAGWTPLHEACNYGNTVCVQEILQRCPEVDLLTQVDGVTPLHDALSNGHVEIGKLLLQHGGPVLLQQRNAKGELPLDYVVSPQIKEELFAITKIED", "experiment": "EMSA; no shift; DNA EMSA: 40 mM Tris pH 7.5, 100 mM KCl, 0.2 mM DTT, 10% glycerol, 20 ug/ml BSA, 10 nM DNA, 4 C 30 min; NCP EMSA: 10 nM NCP, room temperature 20 min; FP: 20 mM", "settings": "protein: recombinant; tags: none (His-tag cleaved by TEV); label: 5' 6-FAM on strand 1; blunt"}, "BRCA1 tBRCT": {"biological_target": "BRCA1 tBRCT (UniProt P38398 1646-1859)", "sequence (P38398 1646-1859)": "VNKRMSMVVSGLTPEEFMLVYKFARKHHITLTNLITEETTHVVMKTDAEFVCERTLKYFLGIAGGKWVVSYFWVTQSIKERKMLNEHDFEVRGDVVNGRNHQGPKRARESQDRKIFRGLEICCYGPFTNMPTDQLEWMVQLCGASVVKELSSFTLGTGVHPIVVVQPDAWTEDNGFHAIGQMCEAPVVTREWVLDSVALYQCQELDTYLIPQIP", "experiment": "EMSA; no interaction observed; DNA EMSA: 40 mM Tris pH 7.5, 100 mM KCl, 0.2 mM DTT, 10% glycerol, 20 ug/ml BSA, 10 nM DNA, 4 C 30 min; NCP EMSA: 10 nM NCP, room temperature 20 min; FP: 20 mM", "settings": "protein: recombinant; tags: N-terminal non-cleavable His-tag; label: 5' 6-FAM on strand 1; blunt"}, "SLF1 tBRCT [3]": {"biological_target": "T2, SLF1 tBRCT (Homo sapiens, UniProt Q9BQI6 6-208)", "T2 sequence": "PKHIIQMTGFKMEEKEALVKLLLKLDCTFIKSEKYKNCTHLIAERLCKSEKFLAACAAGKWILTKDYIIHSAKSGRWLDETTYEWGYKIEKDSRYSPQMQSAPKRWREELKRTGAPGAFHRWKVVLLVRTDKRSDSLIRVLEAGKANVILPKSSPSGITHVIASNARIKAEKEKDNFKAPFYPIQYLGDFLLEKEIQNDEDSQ", "experiment": "fluorescence polarization; 20 mM Tris pH 8.0, 150 mM NaCl, 5% glycerol, room temperature; DNA EMSA: 40 mM Tris pH 7.5, 100 mM KCl, 0.2 mM DTT, 10% glycerol, 20 ug/ml BSA, 10 nM DNA, 4 C 30 min; NCP EMSA: 10 nM NCP, room temperature 20 min; FP: 20 mM", "settings": "protein: recombinant; tags: none (His-tag cleaved by TEV); label: 5' 6-FAM on strand 1; blunt"}, "SLF1 tBRCT T13A": {"biological_target": "T3, SLF1 tBRCT T13A (Homo sapiens, UniProt Q9BQI6 6-208, T13A)", "T3 sequence": "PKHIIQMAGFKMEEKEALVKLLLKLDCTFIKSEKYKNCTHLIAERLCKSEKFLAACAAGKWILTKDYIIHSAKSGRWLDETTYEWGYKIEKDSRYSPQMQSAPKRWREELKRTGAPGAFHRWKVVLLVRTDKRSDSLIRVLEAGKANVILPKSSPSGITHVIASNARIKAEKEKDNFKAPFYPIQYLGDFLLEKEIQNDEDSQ", "experiment": "thermal melt; 30 uM DNA, 10 uM protein; DNA EMSA: 40 mM Tris pH 7.5, 100 mM KCl, 0.2 mM DTT, 10% glycerol, 20 ug/ml BSA, 10 nM DNA, 4 C 30 min; NCP EMSA: 10 nM NCP, room temperature 20 min; FP: 20 mM", "settings": "protein: recombinant; tags: none (His-tag cleaved by TEV); blunt"}, "SLF1 tBRCT K56A": {"biological_target": "T4, SLF1 tBRCT K56A (Homo sapiens, UniProt Q9BQI6 6-208, K56A)", "T4 sequence": "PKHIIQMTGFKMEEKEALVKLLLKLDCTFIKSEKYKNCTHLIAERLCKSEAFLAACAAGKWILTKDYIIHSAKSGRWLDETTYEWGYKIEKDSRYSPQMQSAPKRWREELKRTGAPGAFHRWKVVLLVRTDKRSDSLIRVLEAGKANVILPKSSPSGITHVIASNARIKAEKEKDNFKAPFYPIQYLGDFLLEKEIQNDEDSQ", "experiment": "thermal melt; 30 uM DNA, 10 uM protein; DNA EMSA: 40 mM Tris pH 7.5, 100 mM KCl, 0.2 mM DTT, 10% glycerol, 20 ug/ml BSA, 10 nM DNA, 4 C 30 min; NCP EMSA: 10 nM NCP, room temperature 20 min; FP: 20 mM", "settings": "protein: recombinant; tags: none (His-tag cleaved by TEV); blunt"}, "SLF1 tBRCT [4]": {"biological_target": "T2, SLF1 tBRCT", "experiment": "thermal melt; 30 uM DNA, 10 uM protein; DNA EMSA: 40 mM Tris pH 7.5, 100 mM KCl, 0.2 mM DTT, 10% glycerol, 20 ug/ml BSA, 10 nM DNA, 4 C 30 min; NCP EMSA: 10 nM NCP, room temperature 20 min; FP: 20 mM", "settings": "protein: recombinant; tags: none (His-tag cleaved by TEV); blunt"}, "[5]": {"biological_target": "T5, SLF1^tBRCT (tandem BRCT domain of SLF1, residues 6-208) (human, UniProt Q9BQI6 6-208)", "T5 construct": "SLF1 (SMC5-SMC6 complex localization factor 1), human, tandem BRCT domain, residues 6-208; pHAT4 construct; also called wild-type SLF1^tBRCT; not shown: His-tag, N-terminal, cleaved", "T5 sequence (looked up)": "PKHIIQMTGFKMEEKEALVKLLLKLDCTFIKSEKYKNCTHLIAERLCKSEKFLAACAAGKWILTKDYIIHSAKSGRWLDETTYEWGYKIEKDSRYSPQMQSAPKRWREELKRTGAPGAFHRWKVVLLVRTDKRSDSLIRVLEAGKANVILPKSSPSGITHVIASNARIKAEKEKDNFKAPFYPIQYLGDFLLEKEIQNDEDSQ", "experiment": "thermal melt (SYPRO Orange); 10 μM SLF1^tBRCT proteins with 200 μM RAD18 peptides; 25-95°C; Tm of SLF1^tBRCT", "settings": "both partners purified"}},
  "note": "Non-standard residues stand in square brackets, D forms with d. pS = N[C@@H](COP(=O)(O)O)C(=O)O",
  "data": [
    {"molecule": "SLF1^ARD (ankyrin repeat domain of SLF1, residues 802-934), His-tag cleaved (from UniProt Q9BQI6 802-934) (domain or fragment)", "values": [
      {"measurement": "affinity", "setting": "[1]", "result": "1 to 5", "unit": "µM"}
    ]},
    {"molecule": "SLF1 tBRCT (from UniProt Q9BQI6)", "values": [
      {"measurement": "Kd", "setting": "[2]", "result": 12, "unit": "nM"}
    ]},
    {"molecule": "RAD18 441-446 (from UniProt Q9NS91) pS442/pS444 peptide", "values": [
      {"measurement": "other: ΔTm vs SLF1tBRCT alone", "setting": "SLF1 tBRCT, 6-208; reference: pS442 peptide, sites S444", "result": "stronger; reference 0.8"},
      {"measurement": "other: ΔTm vs SLF1tBRCT alone", "setting": "SLF1 tBRCT, 6-208; reference: pS444 peptide, sites S442", "result": "stronger; reference 0.4"},
      {"measurement": "other: ΔTm vs SLF1tBRCT alone", "setting": "SLF1 tBRCT, 6-208; reference: unphosphorylated peptide SSSSDI, sites S442,S444", "result": 3.7, "unit": "°C"}
    ]},
    {"molecule": "50 bp DNA, 6-FAM (dsDNA) DNA 1: TAAATGCCAATGCTGCTGATACGTACTCGGACTGATTCGGAACTGTAACG DNA 2: CGTTACAGTTCCGAATCAGTCCGAGTACGTATCAGCAGCATTGGCATTTA", "values": [
      {"measurement": "binding result", "setting": "SLF1 ARD", "result": "no binding"},
      {"measurement": "binding result", "setting": "BRCA1 tBRCT", "result": "no binding"},
      {"measurement": "Kd", "setting": "SLF1 tBRCT [3]", "result": 430, "unit": "nM"}
    ]},
    {"molecule": "50 bp DNA, unlabelled (dsDNA) DNA 1: TAAATGCCAATGCTGCTGATACGTACTCGGACTGATTCGGAACTGTAACG DNA 2: CGTTACAGTTCCGAATCAGTCCGAGTACGTATCAGCAGCATTGGCATTTA", "values": [
      {"measurement": "binding signal", "setting": "SLF1 tBRCT T13A", "result": "6.9 C (delta Tm)"},
      {"measurement": "binding signal", "setting": "SLF1 tBRCT K56A", "result": "6.4 C (delta Tm)"},
      {"measurement": "binding signal", "setting": "SLF1 tBRCT [4]", "result": "7.1 C (delta Tm)"}
    ]},
    {"molecule": "Ac-S[pS]S[pS]DI-NH2 (SMILES CC[C@H](C)[C@H](NC(=O)[C@H](CC(=O)O)NC(=O)[C@H](COP(=O)(O)O)NC(=O)[C@H](CO)NC(=O)[C@H](COP(=O)(O)O)NC(=O)[C@H](CO)NC(C)=O)C(N)=O, RAD18, human, residues S441 to I446; also called double phosphorylated RAD18 peptide; double-phosphorylated hexapeptide; source: synthetic peptide (Biomatik))", "note": "[RAD18(442p,444p)^peptide (S(pS)S(pS)DI)]", "values": [
      {"measurement": "ΔTm", "setting": "[5]", "result": 3.7, "unit": "°C"}
    ]}
  ]
}
